target: clathrin purified from bovine brain, P49951; assay: peptide array overlay assay; settings: chain shown with the change, n = 1, parent: est. 0.15, read off a plot
Sequence (P49951 2-1675, chain 1 of 3): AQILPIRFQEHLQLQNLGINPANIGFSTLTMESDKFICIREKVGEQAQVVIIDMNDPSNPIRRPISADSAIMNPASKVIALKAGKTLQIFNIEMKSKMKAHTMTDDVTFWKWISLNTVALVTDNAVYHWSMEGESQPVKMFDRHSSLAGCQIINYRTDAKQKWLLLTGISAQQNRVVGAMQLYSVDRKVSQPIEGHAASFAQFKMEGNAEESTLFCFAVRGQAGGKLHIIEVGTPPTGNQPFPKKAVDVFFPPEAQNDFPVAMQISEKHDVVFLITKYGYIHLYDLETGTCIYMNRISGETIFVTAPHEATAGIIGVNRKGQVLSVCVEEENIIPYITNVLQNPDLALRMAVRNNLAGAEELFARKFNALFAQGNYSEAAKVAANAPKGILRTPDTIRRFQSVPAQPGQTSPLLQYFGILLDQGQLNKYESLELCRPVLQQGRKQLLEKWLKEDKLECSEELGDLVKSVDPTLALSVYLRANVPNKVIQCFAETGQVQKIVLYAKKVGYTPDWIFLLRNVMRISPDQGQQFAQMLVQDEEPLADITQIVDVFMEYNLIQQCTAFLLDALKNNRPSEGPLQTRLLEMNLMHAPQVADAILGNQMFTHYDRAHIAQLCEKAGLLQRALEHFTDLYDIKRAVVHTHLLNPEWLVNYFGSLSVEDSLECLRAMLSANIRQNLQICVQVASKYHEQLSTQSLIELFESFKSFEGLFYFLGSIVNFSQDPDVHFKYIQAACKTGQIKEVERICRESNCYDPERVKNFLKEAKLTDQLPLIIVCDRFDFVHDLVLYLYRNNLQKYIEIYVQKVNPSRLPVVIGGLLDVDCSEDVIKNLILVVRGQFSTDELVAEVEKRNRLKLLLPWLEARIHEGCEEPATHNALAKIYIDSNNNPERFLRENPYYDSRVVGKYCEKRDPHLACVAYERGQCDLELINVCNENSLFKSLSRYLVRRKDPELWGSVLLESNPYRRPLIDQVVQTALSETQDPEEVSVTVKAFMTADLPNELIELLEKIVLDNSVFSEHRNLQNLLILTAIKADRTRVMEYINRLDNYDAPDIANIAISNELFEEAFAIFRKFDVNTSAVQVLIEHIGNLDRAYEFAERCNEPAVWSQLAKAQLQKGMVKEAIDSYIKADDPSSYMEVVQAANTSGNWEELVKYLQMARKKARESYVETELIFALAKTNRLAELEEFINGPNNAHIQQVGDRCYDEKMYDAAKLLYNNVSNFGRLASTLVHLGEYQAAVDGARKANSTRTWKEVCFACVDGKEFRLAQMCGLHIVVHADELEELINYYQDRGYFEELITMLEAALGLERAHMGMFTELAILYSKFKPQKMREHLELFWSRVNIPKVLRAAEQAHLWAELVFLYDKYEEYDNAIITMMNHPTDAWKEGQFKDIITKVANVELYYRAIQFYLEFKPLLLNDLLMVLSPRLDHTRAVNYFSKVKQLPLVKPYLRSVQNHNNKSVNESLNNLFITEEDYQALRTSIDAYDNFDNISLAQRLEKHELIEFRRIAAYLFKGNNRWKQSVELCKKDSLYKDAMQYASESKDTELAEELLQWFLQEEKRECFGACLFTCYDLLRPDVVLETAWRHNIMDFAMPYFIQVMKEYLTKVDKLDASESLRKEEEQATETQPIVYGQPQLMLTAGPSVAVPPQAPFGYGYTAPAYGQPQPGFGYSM
Sequence (chain, as listed by the source, chain 2 of 3): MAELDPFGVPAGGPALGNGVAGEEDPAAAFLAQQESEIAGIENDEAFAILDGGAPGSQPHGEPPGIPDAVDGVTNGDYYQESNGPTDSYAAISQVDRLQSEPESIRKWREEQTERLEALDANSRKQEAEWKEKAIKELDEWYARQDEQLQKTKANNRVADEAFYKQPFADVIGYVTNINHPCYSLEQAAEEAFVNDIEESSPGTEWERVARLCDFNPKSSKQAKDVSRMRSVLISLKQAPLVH
Sequence (chain, as listed by the source, chain 3 of 3): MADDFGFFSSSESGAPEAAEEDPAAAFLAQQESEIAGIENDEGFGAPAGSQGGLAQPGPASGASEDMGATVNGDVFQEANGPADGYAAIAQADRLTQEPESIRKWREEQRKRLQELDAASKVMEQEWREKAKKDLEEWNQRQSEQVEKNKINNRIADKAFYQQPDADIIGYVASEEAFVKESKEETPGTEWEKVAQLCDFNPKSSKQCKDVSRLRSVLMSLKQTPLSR

| other: relative clathrin binding (intensity divided by that of 15mer E) | Binder |
| --- | --- |
| 0 | SDDADSSAANAVGNA [CALM iso3 487-…-501 L490A; L494A; L497A; L501A] |
| 0 | SAAAASSAANAVGNA [CALM iso3 487-…-501 D488A; D489A; L490A; D491A; L494A; L497A; L501A] |
| 0.35 | SAALASSLANLVGNL [CALM iso3 487-…-501 D488A; D489A; D491A] |

same assay, conditions: chain shown with the change, n = 1, parent: est. 1.0, read off a plot

| ratio to parent | Binder |
| --- | --- |
| 0 | AASSAANAVGNAGAG [CALM iso3 490-…-504 L490A; D491A; L494A; L497A; L501A; I503A] |
| 0 | PAKAPAAAANAKAAA [AP180 Site 2 peptide 882-…-896 D885A; L887A; D889A; L890A; I892A; D894A; F895A; L896A] |
| 0.12 | PAKAPLAALNIKAFL [AP180 Site 2 peptide 882-…-896 D885A; D889A; D894A] |

Further lines, the binder ahead of its results:

| Binder | ratio to parent |
| --- | --- |
| PAKDPAADANAKDAA [AP180 Site 2 peptide 882-…-896 L887A; L890A; I892A; F895A; L896A] | 0 |
| LASSLANLVGNLGIG [CALM iso3 490-…-504 D491A] | 1 |
| PNPFGPVSGAQAQAA [CALM iso3 C-terminus peptide 596-…-610 I607A; F609A; M610A] | 0 |
| ADSSAANAVGNAGAG [CALM iso3 490-…-504 L490A; L494A; L497A; L501A; I503A] | 0 |

Source: PMC5004861
